Data on 5 molecules can be found in patent US20190365894A1 (GMAX BIOPHARM, published 2019).

Test [1] addresses T1, human endothelin A receptor (hETAR) (human, UniProt P25101 21-427).
T1 sequence: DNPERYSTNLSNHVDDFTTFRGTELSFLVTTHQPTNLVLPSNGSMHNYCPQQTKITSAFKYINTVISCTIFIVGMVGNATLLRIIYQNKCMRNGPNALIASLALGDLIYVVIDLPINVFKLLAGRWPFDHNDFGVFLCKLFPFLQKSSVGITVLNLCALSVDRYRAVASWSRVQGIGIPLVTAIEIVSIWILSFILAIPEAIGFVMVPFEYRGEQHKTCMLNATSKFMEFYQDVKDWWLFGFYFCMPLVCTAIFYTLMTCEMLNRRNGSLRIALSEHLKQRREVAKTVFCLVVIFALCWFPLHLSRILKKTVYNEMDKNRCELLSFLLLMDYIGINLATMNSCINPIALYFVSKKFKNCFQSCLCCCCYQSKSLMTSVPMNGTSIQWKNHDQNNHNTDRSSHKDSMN
Put plainly: cell-based or functional assay.

In test [2] the target is T1, human endothelin A receptor (hETAR). Put plainly: FACS on CHO-DHFR-ETAR cells against CHO-DHFR- cells. How it is done:
PBS containing 10 mM EDTA was used to detach and collect 10⁵ CHO-DHFR-hETAR cells into a 1.5 mL EP tube. The supernatant was removed after centrifugation and the negative control sample was resuspended with a loading buffer (PBS, 2% FBS). For the positive control, 200 μL antibody supernatant was added to resuspension cells and incubation at room temperature; the cells were then centrifuged at 1500 rpm to remove the supernatant, washed with a FACS loading buffer and centrifuged again. The cells were resuspended with addition (200 μL/well) of a FITC labeled goat anti-mouse fluorescent antibody at 1:50 dilution (BD Pharmingen) and incubated at room temperature for 30 min in the dark. Supernatant was removed after centrifugation, cells were washed with FACS loading buffer, centrifuged again and resuspended with the loading buffer for analysis.

B1: anti-ETAR antibody A-1 (antibody, V domains shown)
VH: QVTLKESGPGILQPSQTLSLTCSFSGFSLTTSGLGVAWIRQPSGKGLEWLAHIWSDGDTRYYPALKNRLTISKDSSSNQVFLKIARVDTADTATYYCARMKDDSLYFDNWGQGTIFTVSS
VL: DILLTQSPAILSVSPGKRVSFSCRASQNIGTSIHWYQQRTNGSPRLLIKYASKSISGISSRFSGSGSGTDFTLSINSVESEDIAAYYCQHSYSWPWTFGGGTKLEIKR
As to B1, the “calcium flux assay, inhibition of human ETAR (IC50)” value in test [1] was determined as 37.9 nM.

B2: anti-ETAR antibody A-12 (antibody, V domains shown)
VH: EVKLVESGGRLVQPGNSLRLSCATSGFTFSDYYMSWVRQTPGRALEWLSFIRNRANGYTTEYSASVKGRFTISRDNSQSILYLHMSTLRPEDSATYYCVRDSYHYGYFDVWGAGTTVTVSS
VL: EIQMTQTPSSLSASLGDRVTITCSASQGINNYLNWYQQKPGGKTRLLIYYTSTLQSGVPSRFSGSGSGTHYSLTISNLEPEDIATYYCQQFSKLRTFGGGTRLEIKR
notes: also called L12H12
For the molecule B2, in test [2], the binding result is given as “binds”.

B3: anti-ETAR antibody A-9 (antibody, V domains shown)
VH: EVQLQQPGGGLVQPGGSLTLSCATSGFTFSSYGMSWVRQTPAKRLELVATISTNGATANYPDSVKGRFTISRDNAKSTLYLQMRSLKSEDTAMYYCATEKGAMGYWGQGTSVTVSS
VL: DVLMTQTPLSLPVSLGDQASISCRSSQNIVHSTGNTYLEWYLQKPGQSPKLLIYKVSNRFSGVPNRFRGSGSGTDFTLKITRVEAEDLGIYYCFQGSHFPFTFGSGTKLEIKR
B3: in test [1], the “calcium flux assay, inhibition of human ETAR (IC50)” value is 87.8 nM.

B4: anti-ETAR antibody A-7 (antibody, V domains shown)
VH: EVHLVESGGGLVQPGGSLKLSCAASGFTFSTYGMSWVRQTPDKRLELVATINTNGGTTYYRDSVKGRFTISRDNAKNTLYLQMSSLKSDDTAMYYCARDYGAMDYWGQGTSVTVSS
VL: DVLMTQTPLSLPVSLGDHASISCRSSQYIVHSTGTTYLEWYLQKPGQSPQLLIYKVSNRFSGVPDRFTGSGSGTDFTLRISRVEAEDLGVYFCFQGSHFPFTFGSGTKLEIKR
notes: also called L7H7
Regarding B4, the binding result in test [2] is reported as “binds”.

B5: anti-ETAR antibody A-2 (antibody, V domains shown)
VH: QIQLVQSGAELAKPGASVRMSCETSGYTFTSYWIHWIKERPGQGLEWIGYINPDTDYSEYNQKFKDKARLTADKSSTTAYMELNSLTFDDSAVYYCASAGYYFFDFWGQGTTLTVSS
VL: DIQMTQSPASLSTSVGETVTITCRASENIYSYLAWYQQRQGKSPHLLVNNAKTLAEGVPSRFSGSGSGTHFSLRISGLQPEDFGSYYCQHHYGIPFTFGGGTKLSIKR
notes: also called L2H2
For the molecule B5, in test [2], the binding result was “binds”.
